This data set has as its target SP-1 (rhSP-1) (Homo sapiens, UniProt P08047 2-785). The data set can be described thus: EMSA; 300 ng rhSP-1, 125 fmol probe; competed by 50x/100x cold probe; Promega Gel Shift Assay System (binding buffer, salt and pH not given); 10 min preincubation then 20 min with probe at 25 C; 4% non-denaturing PAGE. The conditions noted are these: protein: recombinant; label: 32P 5' end; blunt.

Sequence of SP-1 (rhSP-1) (P08047 2-785): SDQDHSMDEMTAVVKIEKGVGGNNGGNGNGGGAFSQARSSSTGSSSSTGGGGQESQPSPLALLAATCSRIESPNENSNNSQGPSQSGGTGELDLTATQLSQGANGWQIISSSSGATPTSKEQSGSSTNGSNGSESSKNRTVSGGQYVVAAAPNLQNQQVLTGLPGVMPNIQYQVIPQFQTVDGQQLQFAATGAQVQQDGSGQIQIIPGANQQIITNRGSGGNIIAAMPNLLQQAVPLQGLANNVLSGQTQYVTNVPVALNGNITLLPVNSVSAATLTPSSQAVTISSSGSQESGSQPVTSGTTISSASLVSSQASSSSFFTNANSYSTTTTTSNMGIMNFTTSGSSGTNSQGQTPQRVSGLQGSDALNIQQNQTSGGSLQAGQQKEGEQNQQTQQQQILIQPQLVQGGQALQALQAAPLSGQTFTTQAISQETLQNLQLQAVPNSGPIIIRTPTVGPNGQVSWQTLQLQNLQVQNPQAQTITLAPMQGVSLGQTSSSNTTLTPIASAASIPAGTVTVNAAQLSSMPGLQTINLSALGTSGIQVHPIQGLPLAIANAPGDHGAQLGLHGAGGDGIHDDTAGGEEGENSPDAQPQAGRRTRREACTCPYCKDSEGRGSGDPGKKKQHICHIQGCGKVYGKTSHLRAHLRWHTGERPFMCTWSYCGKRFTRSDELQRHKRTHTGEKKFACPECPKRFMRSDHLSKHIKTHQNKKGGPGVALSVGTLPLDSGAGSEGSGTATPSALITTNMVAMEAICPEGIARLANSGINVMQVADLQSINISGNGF

B1: dsA5pInDel (CHRNA5 promoter rs3841324 region) (dsDNA)
DNA 1: GATTGGGCGGGGCCAGAGGGAAATAGGGG
DNA 2: CCCCTATTTCCCTCTGGCCCCGCCCAATC
Regarding B1, the binding result is “binds”.

The record behind these values is article PMC3155531, “In Vitro and Ex Vivo Analysis of CHRNA3 and CHRNA5 Haplotype Expression”.
